The results in this text go back to patent publication US20130245238A1 (Bristol-Myers Squibb, published 2013).

T1: human PXR-GST (Invitrogen) (human, UniProt O75469 111-434, limits assumed)
T1 construct: Captured on an anti-GST antibody chip; the whole natural protein is named; also called GST-PXR; GST-tagged PXR; not shown: GST tag
T1 sequence (looked up): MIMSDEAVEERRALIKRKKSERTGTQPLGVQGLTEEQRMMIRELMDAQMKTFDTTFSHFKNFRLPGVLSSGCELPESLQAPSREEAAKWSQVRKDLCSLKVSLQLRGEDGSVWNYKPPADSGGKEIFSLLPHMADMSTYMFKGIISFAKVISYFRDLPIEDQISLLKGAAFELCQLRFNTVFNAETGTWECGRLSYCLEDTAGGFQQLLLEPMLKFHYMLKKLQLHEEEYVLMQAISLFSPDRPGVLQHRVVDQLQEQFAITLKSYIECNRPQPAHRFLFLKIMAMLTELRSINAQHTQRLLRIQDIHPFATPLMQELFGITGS

T2: biotinylated murine IL-17 (murine, UniProt Q62386 26-158, limits assumed, biotinylated (site not stated))
T2 construct: Used at 2.5 nM in the Alphascreen assay; also called interleukin 17
T2 sequence (looked up): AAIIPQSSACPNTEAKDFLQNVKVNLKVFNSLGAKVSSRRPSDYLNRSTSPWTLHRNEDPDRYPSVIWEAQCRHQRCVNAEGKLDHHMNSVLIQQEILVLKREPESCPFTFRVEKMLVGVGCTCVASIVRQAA

B1: Adnectin-5 (designed binder)
chain: MGVSDVPRDLEVVAATPTSLLISWKYPYETISYYRITYGETGGNSPVQEFTVPYYRSTATISGLKPGVDYTITVYAVEASAPYSDGGSPISINYRTEIDKPSQHHHHHH
B2: Adnectin-1 (designed binder)
chain: MASTSGSTHYYKGTADLEVVAATPTSLLISWPPPYYVEGVTVFRITYGETGGNSPVQEFTVPYWTETATISGLKPGVDYTITVYAEMYPGSPWAGQVMDIQPISINYRTEGSGSHHHHHH
notes: Isolated from an NP1 library; purified by Ni-agarose
B3: Adnectin-8 (designed binder)
chain: MGVSDVPRDLEVVAATPTSLLISWSQPGRYVKYYRITYGETGGNSPVQEFTVPNDTYTATISGLKPGVDYTITVYAVYGKYGPYYGYDPISINYRTEIDKPSQHHHHHH
B4: Adnectin-2 (designed binder)
chain: MASTSGVSDVPRDLEVVAATPTSLLISWDAPAVTVNNYRITYQPLLQGSSIQHFDVPGSKSTATISGLKPGVGYQITVYASTYTHSKAYYSLPISIYYRTEGSGSHHHHHH
B5: Adnectin-6 (designed binder)
chain: MGVSDVPRDLEVVAATPTSLLISWSRPKGSIKYYRITYGETGGNSPVQEFTVPNSQYTATISGLKPGVDYTITVYAVYGYPYQEPHYYPISINYRTEIDKPSQHHHHHH
B6: Adnectin-7 (designed binder)
chain: MGVSDVPRDLEVVTATPTSLLISWDGPKYYVKYYRITYGETGGNSPVQEFTVPRTDHTATISGLKPGVDYTITVYAVKGQYGPYYGSRPISINYRTEIDKPSQHHHHHH
B7: Adnectin-4 (designed binder)
chain: MASTSGVSDVPRDLEVVAATPTSLLISWDAPAVTVHSYYITYQELQHHSVPQGFQVPGSKSTATISGLKPGVAYQIAVYAFTGPGLPPSDAPPIVIYYRTEGSGSHHHHHH
B8: Adnectin-3 (designed binder)
chain: MASTSGVSDVPRDLEVVAATPTSLLISWDAPAVPVSKYVIYYWPGALISSMQAFKVPGSKSTATISGLKPGVLYSIVVDALTGDGQGSYVWDPITITYRTEGSGSHHHHHH
B9: WS-LI1 binder having the sequence of SEQ ID NO: 46 (designed binder)
chain: MGVSDVPRDLEVVAATPTSLLISWDAPAVTVRYYRITYGEYSSFFQHQGQYYHYIQEFTVPGSKSTATISGLKPGVDYTITVYAVTQHEHSQDSSKPISINYRTEIDKPSQ
notes: Modified ^10Fn3 domain (CD and FG loops)
B10: WS-LI1 binder having the sequence of SEQ ID NO: 47 (designed binder)
chain: MGVSDVPRDLEVVAATPTSLLISWDAPAVTVRYYRITYGEFSQFVHSDGEYYQEYQEFTVPGSKSTATISGLKPGVDYTITVYAVTGQYDQDDEPSSKPISINYRTEIDKPSQ
notes: as for B9
B11: WS-LI1 binder having the sequence of SEQ ID NO: 45 (designed binder)
chain: MGVSDVPRDLEVVAATPTSLLISWDAPAVTVRYYRITYGEYHAFFASNGKYYFYIQEFTVPGSKSTATISGLKPGVDYTITVYAVTDDTVHHGDSNYHSSKPISINYRTEIDKPSQ
notes: as for B9
B12: WS-LI1 binder having the sequence of SEQ ID NO: 5 (designed binder)
chain: MGVSDVPRDLEVVAATPTSLLISWDAPAVTVRYYRITYGEYHEHYHSPGFSQKYHYEQEFTVPGSKSTATISGLKPGVDYTITVYAVTGHKHYHYYYYYHHHSSKPISINYRTEIDKPSQ
notes: as for B9
B13: WS-LI1 binder having the sequence of SEQ ID NO: 3 (designed binder)
chain: MGVSDVPRDLEVVAATPTSLLISWDAPAVTVRYYRITYGEQHSKYPHQEFTVPGSKSTATISGLKPGVDYTITVYAVTIQPQDPEQDYQYHYYETSSKPISINYRTEIDKPSQ
notes: as for B9
B14: WS-LI1 binder having the sequence of SEQ ID NO: 4 (designed binder)
chain: MGVSDVPRDLEVVAATPTSLLISWDAPAVTVRYYRITYGEHVADHFDHNQEFTVPGSKSTATISGLKPGVDYTITVYAVTYQFQDPEEHYYYHFYDSSSKPISINYRTEIDKPSQ
notes: as for B9
B15: non-binding control ^10Fn3 molecule (SEQ ID NO: 6 with an additional MG at the N-terminus and RGD changed to RGE) (designed binder)
chain: MGVSDVPRDLEVVAATPTSLLISWDAPAVTVRYYRITYGETGGNSPVQEFTVPGSKSTATISGLKPGVDYTITVYAVTGRGESPASSKPISINYRT
B16: scaffold region peptide of SEQ ID NO: 53 (peptide)
peptide: MGEVVAATPTSLLIS
notes: Synthetic peptide; also called wildtype scaffold region segment N-terminal to the BC loop
B17: BC loop peptide (SEQ ID NO: 58) (peptide)
peptide: PTSLLISWDAPAVTVRYYRITYG
notes: Synthetic peptide; also called BC loop region cluster
B18: scaffold region peptide of SEQ ID NO: 54 (peptide)
peptide: PHFPTRYYRITYGETGGNS
notes: Synthetic peptide from an engineered ^10Fn3 domain; also called modified scaffold region segment C-terminal to the BC loop

The target of the first assay is T1, human PXR-GST (Invitrogen). The experiment in a line: SPR, Biacore T100; human PXR-GST captured on anti-GST antibody chip.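 Note: binding rate constants and Kd derived from kinetic cycles using the Biacore T100 analysis software.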
The molecule B1 yielded a Kd of 5.4 nM, a koff of 0.0027 s⁻¹ and a kon of 509000 M⁻¹ s⁻¹.

B2 gave a Kd of 11.4 nM, a koff of 0.00119 s⁻¹ and a kon of 104000 M⁻¹ s⁻¹.

Molecule B3 displayed a Kd of 4.4 nM, a dissociation rate constant (koff) of 0.000182 s⁻¹ and a kon of 41700 M⁻¹ s⁻¹.

On to B4, for which the Kd was determined as 97.8 nM, the koff came to 0.00458 s⁻¹ and the kon was around 46800 M⁻¹ s⁻¹.

As to B5, the affinity, expressed as Kd, was 1.9 nM; the koff was 0.00126 s⁻¹; the kon was 680000 M⁻¹ s⁻¹.

For B6, the Kd was found to be 0.31 nM, the koff was 8.82e-05 s⁻¹ and the kon stood at 288000 M⁻¹ s⁻¹.

Regarding B7, the Kd turned out to be 7.8 nM, the koff worked out at 0.000168 s⁻¹ and the kon came to 21500 M⁻¹ s⁻¹.

Take B8: the Kd came out at 2.5 nM, the koff was found to be 0.000378 s⁻¹ and the kon was found to be 162000 M⁻¹ s⁻¹.

Another assay deals with T2, biotinylated murine IL-17. The experiment in a line: competitive Alphascreen; 1 µM binder, biotinylated murine IL-17 against murine IL-17RA-Fc. (In Alpha technology, singlet oxygen from a donor bead excites a nearby acceptor bead.)
Consider B9, for which the “% inhibition of the Alphascreen signal” value was found to be 94%.

B10: the “% inhibition of the Alphascreen signal” value is 81%.

In the case of B11, the “% inhibition of the Alphascreen signal” value came out at 83%.

For a further assay, the target named is T3, murine DLL4 (murine, UniProt Q9JI71 28-525, limits assumed).
T3 construct: Soluble protein used at 20 nM; construct and source are not described; also called delta-like protein 4
The assay can be described thus: competitive Biacore; 2 µM binder equilibrated with 20 nM murine DLL4, flowed over immobilised Notch1-Fc. A general note: Surface plasmon resonance follows binding to a sensor surface in real time, without labels.
As for B12, the “% competition of the interaction between Notch1 and murine DLL4” value (“% competition” for short) was found to be 75%.

Turning to B13, the “% competition” value was 100%.

On to B14, for which the “% competition” value was found to be 100%.

The target in a further assay is T4, Recombinant human integrin αVβ3 (R&D Systems) (human, UniProt P06756 31-992; P05106 27-718).
T4 construct: Amine-coupled on a CM7 chip; also called integrin AlphaV-Beta3
The assay can be described thus: SPR (Biacore), integrin amine-coupled to a CM7 chip, binding RU at the end of the injection.
Regarding B15, the binding result is “no binding (tested: 5 µM)”.

The target of another assay is HLA allele molecule DRB*0101 (human). The experiment in a line: HLA class II competition binding assay: inhibition of the europium-labeled control peptide, time-resolved fluorescence.
Consider B16, for which the IC50 was determined as 6000 nM.

The next assay addresses HLA allele molecule DRB*1501 (human). The description is as above.
Regarding B16, the IC50 is below 100 nM.

B17: the IC50 is below 1000 nM.

B18 registered an IC50 of 50000 nM.

The term Kd denotes the concentration at which binding is half-saturated. Low values mean higher affinity, high ones lower affinity. Usually koff stands for a measure of how fast the partners let go of each other. Lower therefore signals slow dissociation. As usually defined, the kon is the second-order rate constant of association. As a reminder, the IC50 is the point on the concentration scale where inhibition reaches its midpoint. A low value points to greater potency in that assay.
